Reference: publication PMC11666773, “Development of mirror-image monobodies targeting the oncogenic BCR::ABL1 kinase” (Nature Communications, 2024)
Residue numbers refer to the chain shown, from its start. Names may count otherwise. Non-standard residues stand in square brackets, D forms with d. *: point of attachment. 5FAM = O=C1OC2(c3ccc(O)cc3Oc3cc(O)ccc32)c2ccc(C(=O)*)cc21

What was measured:
[1] = molecular target: the molecule itself; test: crystal structure; L-DAM21 with D-Abl SH2 A198C; 0.16 M ammonium sulfate, 0.08 M sodium acetate pH 4.6, 20% PEG 4000, 20% glycerol; 100 K
[2] = molecular target: T1, D-Abl SH2 domain (synthetic mirror-image SH2 domain of human BCR::ABL1) (human, UniProt P00519-2 141-240, all residues in D-configuration); test: ITC
T1 chain: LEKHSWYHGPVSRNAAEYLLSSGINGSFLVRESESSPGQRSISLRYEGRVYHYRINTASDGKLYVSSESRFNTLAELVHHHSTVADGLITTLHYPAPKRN

[3] = molecular target: T2, biotinylated synthetic D-Abl SH2 domain (human, UniProt P00519-2 141-240, all residues in D-configuration; biotin (position not given)); test: FACS; yeast surface display
T2 chain: T1 chain

[4] = molecular target: T3, L-Abl SH2 domain (recombinant) (human); test: ITC
T3 chain: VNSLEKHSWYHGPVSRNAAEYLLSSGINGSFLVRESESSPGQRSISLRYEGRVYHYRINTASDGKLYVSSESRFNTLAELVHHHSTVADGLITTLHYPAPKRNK

[5] = molecular target: T3, L-Abl SH2 domain (recombinant); test: ITC; monobody in the syringe titrated to the SH2 domain, 20 mM HEPES pH 7.4, 150 mM NaCl, 0.5 mM TCEP-HCl, 25 °C, 1:1 binding model
[6] = molecular target: T1, D-Abl SH2 domain (synthetic …); test: ITC
[7] = molecular target: D-Abl SH2 domain (synthetic mirror-image SH2 domain of human BCR::ABL1) (human) (UniProt P00519); test: ITC; monobody in the syringe titrated to the SH2 domain, 20 mM HEPES pH 7.4, 150 mM NaCl, 0.5 mM TCEP-HCl, 25 °C, 1:1 binding model
[8] = molecular target: T4, D-Abl SH2 domain (synthetic mirror-image SH2 domain of human BCR::ABL1) (human, UniProt P00519-2 141-240, all residues in D-configuration); test: fluorescence polarisation; direct binding of the fluorescent D-pY peptide to D-Abl SH2 (Fig. S1); conditions not shown; settings: both partners purified
T4 construct: Mirror-image protein; also called D-Bcr-Abl SH2; D-SH2
T4 sequence: T1 chain

[9] = molecular target: T1, D-Abl SH2 domain (synthetic …); test: ITC

B1: D-Abl SH2 A198C (synthetic D-Abl SH2 domain not desulfurized, cysteine at position 198) (domain or fragment, human)
chain: T1 chain with A58C
modifications: all residues in D-configuration
notes: SH2 domain of human ABL1 (BCR::ABL1); Found as a disulfide-bridged (Cys198) dimer in both crystal structures; also called D-SH2
Does B1 bind [1]?
Result: binds

B2: L-monobody DAM30.1 (recombinant) (designed binder)
chain: MAASSVPTKLEVVAATPTSLLISWDAPAVTVDHYVITYGETGGGWYGQEFEVPGSKSTATISGLKPGVDYTITVYAYEFYSGEYSHFSPISINYRT
For B2, which Kd [2] is on record?
The Kd was 90.3 nM.

B3: L-monobody DAM28 (recombinant) (designed binder)
chain: MAASSVPTKLEVVAATPTSLLISWDAPAVTVDHYVITYGETGGNSPVQEFTVPGSKSTATISGLKPGVDYTITVYAYEYWEYEYSSYSPISINYRT
B3 was tested. Which Kd [2] did it give?
The Kd was 58.9 nM.

B4: monobody DAM28 displayed on yeast (designed binder)
chain: B3 chain
How did the Kd [3] turn out when B4 was run?
The Kd was 68 nM.

B5: monobody DAM26 displayed on yeast (designed binder)
chain: B2 chain with G44N, W45S, Y46P, G47V, E51T
For B5, which Kd [3] is on record?
The Kd was 32 nM.

B6: L-monobody DAM26 (recombinant) (designed binder)
chain: B2 chain with G44N, W45S, Y46P, G47V, E51T
With B6 as the binder, how does the Kd [2] read?
Its Kd is 249 nM.

B7: synthetic D-DAM27-XTEN (mirror-image monobody) (designed binder)
chain: AASSVPTKLEVVAATPTSLLISWDAPAVTVDHYVITYGETGGGGGSQEFEVPGSKSTATISGLKPGVDYTITVYAYEFYSGEYSHFSPISINYRT
modifications: all residues in D-configuration; biotin at the N-terminus
Which results are given for B7?
Kd [4]: 125 nM; stoichiometry N [5]: 1

B8: synthetic L-DAM27-XTEN (designed binder)
chain: ASSVPTKLEVVAATPTSLLISWDAPAVTVDHYVITYGETGGGGGSQEFEVPGSKSTATISGLKPGVDYTITVYAYEFYSGEYSHFSPISINYRTAEGPSTAEGPSTAEGPST
modifications: biotin at the N-terminus
For B8, which Kd [6] is on record?
The Kd was 128 nM.

What about the stoichiometry N [7] of the same binder?
Its stoichiometry N is 1.

B9: recombinant L-DAM27-XTEN (designed binder)
chain: B8 chain
For B9, which Kd [6] is on record?
The Kd was 97.6 nM.

What about the stoichiometry N [7] of the same binder?
Its stoichiometry N is 1.

B10: D-pY peptide 5-carboxyfluoresceine-EPQpYEEIPIYLK-CONH2 in D-configuration (peptide)
peptide: 5FAM-[dE][dP][dQ][dpY][dE][dE][dI][dP][dI][dY][dL][dK]-NH2
notes: also called D-pYEEI peptide; D-phospho tyrosine (pY) peptide; source: synthetic peptide, bought: Peptide Synthetics (UK)
Which Kd [8] does the source give for B10 here?
Its Kd is about 5000 nM.

B11: L-monobody DAM30.2 (recombinant) (designed binder)
chain: MAASSVPTKLEVVAATPTSLLISWDAPAVTVDHYVITYGETGAYVSGPQEFTVPGSKSTATISGLKPGVDYTITVYAYEFYSGEYSHFSPISINYRT
How did the Kd [2] turn out when B11 was run?
The Kd was 189 nM.

B12: monobody DAM27 displayed on yeast (designed binder)
chain: ASSVPTKLEVVAATPTSLLISWDAPAVTVDHYVITYGETGGGGGSQEFEVPGSKSTATISGLKPGVDYTITVYAYEFYSGEYSHFSPISINYRT
With B12 as the binder, how does the Kd [3] read?
The Kd was 24 nM.

B13: L-monobody DAM27 (recombinant) (designed binder)
chain: B12 chain
How did the Kd [9] turn out when B13 was run?
Its Kd is 72.3 nM.

B14: L-monobody DAM21 (recombinant) (designed binder)
chain: ASSVPTKLEVVAATPTSLLISWDAPAVTVDHYVITYGETGGNSPVQEFTVPGSKSTATISGLKPGVDYTITVYASDYYDGEISWYSPISINYRT
B14 was tested. Which Kd [9] did it give?
The Kd was 11.9 nM.

B15: monobody DAM21 displayed on yeast (designed binder)
chain: B14 chain
For B15, which Kd [3] is on record?
The Kd was 20 nM.
